Laboratory results from patent US20260049134A1 (UNIVERSITY OF FLORIDA RESEARCH FOUNDATION, published 2026).

T1: GARS, endogenous in H929 multiple myeloma cells (human, UniProt P41250 37-739, limits assumed)
T1 construct: Native protein pulled down from H929 lysates; also called Glycyl-tRNA synthetase; GlyRS
T1 sequence: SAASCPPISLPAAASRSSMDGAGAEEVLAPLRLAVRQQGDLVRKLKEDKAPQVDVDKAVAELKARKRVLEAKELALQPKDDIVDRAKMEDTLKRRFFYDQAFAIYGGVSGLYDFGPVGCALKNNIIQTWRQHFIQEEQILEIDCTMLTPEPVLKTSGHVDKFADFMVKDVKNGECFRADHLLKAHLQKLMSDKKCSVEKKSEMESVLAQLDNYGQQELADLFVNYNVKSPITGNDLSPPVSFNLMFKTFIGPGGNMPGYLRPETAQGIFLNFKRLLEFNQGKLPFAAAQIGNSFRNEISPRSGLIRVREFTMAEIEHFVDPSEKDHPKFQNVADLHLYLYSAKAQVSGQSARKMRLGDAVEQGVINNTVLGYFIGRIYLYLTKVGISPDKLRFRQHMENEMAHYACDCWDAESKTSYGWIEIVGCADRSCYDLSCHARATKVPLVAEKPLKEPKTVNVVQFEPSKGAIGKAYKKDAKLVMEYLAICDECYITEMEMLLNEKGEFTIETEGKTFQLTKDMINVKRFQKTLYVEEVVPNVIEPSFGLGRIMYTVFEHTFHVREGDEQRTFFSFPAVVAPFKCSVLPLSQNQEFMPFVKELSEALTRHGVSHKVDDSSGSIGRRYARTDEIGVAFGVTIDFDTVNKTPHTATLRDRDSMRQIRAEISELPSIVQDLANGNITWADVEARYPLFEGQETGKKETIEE

T2: CADM1-His (Acro Biosystems) (human, UniProt Q9BY67 45-374)
T2 construct: Bought; also called CADM1/IGSF4A; not shown: His tag of the bought protein
T2 sequence: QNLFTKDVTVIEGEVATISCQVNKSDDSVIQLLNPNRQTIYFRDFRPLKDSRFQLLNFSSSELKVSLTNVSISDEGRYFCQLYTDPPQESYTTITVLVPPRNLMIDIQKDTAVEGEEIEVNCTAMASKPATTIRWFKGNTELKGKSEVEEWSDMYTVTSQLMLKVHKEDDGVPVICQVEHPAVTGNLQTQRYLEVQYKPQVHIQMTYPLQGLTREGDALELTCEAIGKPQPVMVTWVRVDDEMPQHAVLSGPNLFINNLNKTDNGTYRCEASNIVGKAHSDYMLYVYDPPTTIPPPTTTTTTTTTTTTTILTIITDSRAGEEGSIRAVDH

B1: HW-56 chimeric rabbit-human IgG1 LA/LA/PG (antibody, V domains shown)
VH: QSVKESEGGLFKPTDTLTLTCTASGFTVSTNAVTWVRQAPGNGLEYIGTIGRSGSAYFASWAKRRSTLTRDINLNTVTLKMTSLTAADTATYFCVRGSPGYRTAISIWGPGTLVTISS
VL: AVMTQTPSSTSAAVEGTVTINCQASQSISNRLSWFQQKPGQPPKLLIYQASTLASGVPSRFKGSGSGTEFTLTISGVQREDAATYYCLGSYSSSDASFGGGTKLEIKR
notes: Fc-silenced (L234A/L235A/P329G) IgG1, kappa; Alexa Fluor 647-labeled in single-step flow cytometry; Cluster C-45
B2: HW-81 chimeric rabbit-human IgG1 LA/LA/PG (antibody, V domains shown)
VH: QKQLVESGGGLVTPGGTLTLTCTVSGFSLSSNGVSWVRQAPGKGLEYIGLIRSIGSTYYATWAKGRFTISKTSTTVDLKITSPTTEDTATYFCARGGYRNGFKLWGPGTLVTVSS
VL: QPVLTQSPSVSAALGASAKLTCTLSSAHKTYYIEWYQQQHPGKAPRYLMQLQSDGSYTKGTGVPDRFSGSSSGADRYLIISSVQAEDEADYICGVIDSAVYVFGGGTQLTVTG
notes: Fc-silenced (L234A/L235A/P329G) IgG1, lambda; Alexa Fluor 647-labeled in single-step flow cytometry; Cluster C-45
B3: HW-16 chimeric rabbit-human IgG1 LA/LA/PG (antibody, V domains shown)
VH: QSLEESGGRLVTPGTPLTLTCTASGFSLSSYAMSWVRQAPGKGLEWIGTMPTGGGTYYASWAKGRFTISKTSTTVDLQITSPTTEDTATYFCAKHWNIWGPGTLVTISS
VL: DIVLTQTPSSTSTAVGDTVTINCRASQSIGRNLAWFQQKPGQPPKLLIYRASNLASGVPSRFKGSGSRTQFTLTISGVQREDAATYYCLGSYSSSDTAFGGGTELEILR
notes: as for B1

Key:
[1] = target: T1, GARS, endogenous in H929 multiple …; assay: flow cytometry, H929 + ICAM1 siRNA; None 1.06; surface target GARS putative
[2] = target: T3, ICAM1-Fc (R&D Systems) (human, UniProt P05362 28-480); assay: ELISA on coated ICAM1-Fc
T3 construct: Bought; also called ICAM-1/CD54; not shown: Fc of the bought fusion protein
Description: (§1) Recombinant purified ECDs (50-150 ng) of each putative target protein were coated, incubated with 150 ng of the indicated primary antibody, and binding was detected using a peroxidase-conjugated anti-human Fab secondary antibody. Heatmap represents averages of technical triplicates. (8B) Target validation via siRNA knockdown. H929 cells were transfected with siRNA pools targeting the putative antibody targets ICAM1, CADM1, and PTPRG. Cells were then subjected to cognate IgG binding analysis via flow cytometry. (NT, non-targeting siRNA).
(§2) ELISA ELISA was conducted as described previously. Briefly, 50-150 ng of antigen was coated overnight in half-area 96-well plates at 4° C., blocked with 3% BSA at 37° C. for 1 h, and 150 ng of chimeric rabbit/human IgG1 was added, incubating for 2 h at 37° C. […] After incubating at 37° C. for 15 min-1 h (depending on intensity of controls), data were acquired using a SpectraMax M5 plate reader (Molecular Devices).

[3] = target: T2, CADM1-His (Acro Biosystems); assay: ELISA on coated CADM1-His
Description: as §1, §2

[4] = target: T1, GARS, endogenous in H929 multiple …; assay: flow cytometry, H929 + vehicle; None 2.74; surface target GARS putative
[5] = target: T1, GARS, endogenous in H929 multiple …; assay: flow cytometry, H929 + GARS siRNA (siRNA against the putative target); None 0.2
[6] = target: T1, GARS, endogenous in H929 multiple …; assay: flow cytometry, H929 + PTPRG siRNA; None 2.13; surface target GARS putative

T3 sequence (P05362 28-480): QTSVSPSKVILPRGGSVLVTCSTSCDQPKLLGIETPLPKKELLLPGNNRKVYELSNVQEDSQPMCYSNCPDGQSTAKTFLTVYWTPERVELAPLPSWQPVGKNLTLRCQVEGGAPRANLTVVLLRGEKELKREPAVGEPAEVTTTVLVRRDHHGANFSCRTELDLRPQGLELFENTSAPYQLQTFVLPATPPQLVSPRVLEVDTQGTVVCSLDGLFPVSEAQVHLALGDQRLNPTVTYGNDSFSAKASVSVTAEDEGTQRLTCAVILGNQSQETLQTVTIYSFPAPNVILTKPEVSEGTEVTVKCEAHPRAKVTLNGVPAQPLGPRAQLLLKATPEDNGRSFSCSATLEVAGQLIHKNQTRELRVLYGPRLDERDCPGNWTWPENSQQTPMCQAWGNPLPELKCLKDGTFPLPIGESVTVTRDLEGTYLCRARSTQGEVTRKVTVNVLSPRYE

Row | Binder | Cells stained (%) [1] [%] | binding result [2] | binding result [3] | Cells stained (%) [4] [%] | Cells stained (%) [5] [%] | Cells stained (%) [6] [%]
1 | B1 | 99.2 | no binding (tested: 150 ng IgG1 per well) | no binding (tested: 150 ng IgG1 per well) | 99.5 | 99.9 | 99.8
2 | B2 | 99.1 | no binding (tested: 150 ng IgG1 per well) | no binding (tested: 150 ng IgG1 per well) | 99.7 | 99.4 | 100
3 | B3 | 98.1 | no binding (tested: 150 ng IgG1 per well) | no binding (tested: 150 ng IgG1 per well) | 99.1 | 99.1 | 98.2
